{
  "source": "IntAct's records for PubMed 10646860",
  "parents": {"B1": {"name": "Apoptosis-stimulating of p53 protein 2 (Homo sapiens), Q13625 (parent)", "chain": "MMPMFLTVYLSNNEQHFTEVPVTPETICRDVVDLCKEPGESDCHLAEVWCGSERPVADNERMFDVLQRFGSQRNEVRFFLRHERPPGRDIVSGPRSQDPSLKRNGVKVPGEYRRKENGVNSPRMDLTLAELQEMASRQQQQIEAQQQLLATKEQRLKFLKQQDQRQQQQVAEQEKLKRLKEIAENQEAKLKKVRALKGHVEQKRLSNGKLVEEIEQMNNLFQQKQRELVLAVSKVEELTRQLEMLKNGRIDSHHDNQSAVAELDRLYKELQLRNKLNQEQNAKLQQQRECLNKRNSEVAVMDKRVNELRDRLWKKKAALQQKENLPVSSDGNLPQQAASAPSRVAAVGPYIQSSTMPRMPSRPELLVKPALPDGSLVIQASEGPMKIQTLPNMRSGAASQTKGSKIHPVGPDWSPSNADLFPSQGSASVPQSTGNALDQVDDGEVPLREKEKKVRPFSMFDAVDQSNAPPSFGTLRKNQSSEDILRDAQVANKNVAKVPPPVPTKPKQINLPYFGQTNQPPSDIKPDGSSQQLSTVVPSMGTKPKPAGQQPRVLLSPSIPSVGQDQTLSPGSKQESPPAAAVRPFTPQPSKDTLLPPFRKPQTVAASSIYSMYTQQQAPGKNFQQAVQSALTKTHTRGPHFSSVYGKPVIAAAQNQQQHPENIYSNSQGKPGSPEPETEPVSSVQENHENERIPRPLSPTKLLPFLSNPYRNQSDADLEALRKKLSNAPRPLKKRSSITEPEGPNGPNIQKLLYQRTTIAAMETISVPSYPSKSASVTASSESPVEIQNPYLHVEPEKEVVSLVPESLSPEDVGNASTENSDMPAPSPGLDYEPEGVPDNSPNLQNNPEEPNPEAPHVLDVYLEEYPPYPPPPYPSGEPEGPGEDSVSMRPPEITGQVSLPPGKRTNLRKTGSERIAHGMRVKFNPLALLLDSSLEGEFDLVQRIIYEVDDPSLPNDEGITALHNAVCAGHTEIVKFLVQFGVNVNAADSDGWTPLHCAASCNNVQVCKFLVESGAAVFAMTYSDMQTAADKCEEMEEGYTQCSQFLYGVQEKMGIMNKGVIYALWDYEPQNDDELPMKEGDCMTIIHREDEDEIEWWWARLNDKEGYVPRNLLGLYPRIKPRQRSLA"}},
  "data": [
    {"variants_of": "B1", "details": "with apcl_human APC2, O95996", "values": [
      {"variant": "W1098K", "effect of a mutation on the interaction": "disrupting interaction strength"}
    ]}
  ]
}
